From the supplement of paper PMC9876800

Tested on: peptide library, one residue held at a place counted from the S/T acceptor
Test: relative phosphorylation of the sub-library (ratio to the mean residue at this position); higher = residue favoured
Summary of the method: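 Each biotinylated degenerate peptide sub-library fixed one residue at one position around a central Ser/Thr and was incubated with a purified recombinant kinase, a human or orthologue construct, in 384-well plates. The 90 min reactions, under kinase-specific conditions, contained 50 μM peptide and 50 μM ATP spiked with γ-32P-ATP. Phosphorylation was read by phosphorimaging spots on streptavidin membranes and quantifying them by densitometry. Relative sub-library phosphorylation expresses each value as a ratio to the mean residue at that position.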

Sequence of PRKG2, construct: Full length, human (Q13237 whole entry, looked up): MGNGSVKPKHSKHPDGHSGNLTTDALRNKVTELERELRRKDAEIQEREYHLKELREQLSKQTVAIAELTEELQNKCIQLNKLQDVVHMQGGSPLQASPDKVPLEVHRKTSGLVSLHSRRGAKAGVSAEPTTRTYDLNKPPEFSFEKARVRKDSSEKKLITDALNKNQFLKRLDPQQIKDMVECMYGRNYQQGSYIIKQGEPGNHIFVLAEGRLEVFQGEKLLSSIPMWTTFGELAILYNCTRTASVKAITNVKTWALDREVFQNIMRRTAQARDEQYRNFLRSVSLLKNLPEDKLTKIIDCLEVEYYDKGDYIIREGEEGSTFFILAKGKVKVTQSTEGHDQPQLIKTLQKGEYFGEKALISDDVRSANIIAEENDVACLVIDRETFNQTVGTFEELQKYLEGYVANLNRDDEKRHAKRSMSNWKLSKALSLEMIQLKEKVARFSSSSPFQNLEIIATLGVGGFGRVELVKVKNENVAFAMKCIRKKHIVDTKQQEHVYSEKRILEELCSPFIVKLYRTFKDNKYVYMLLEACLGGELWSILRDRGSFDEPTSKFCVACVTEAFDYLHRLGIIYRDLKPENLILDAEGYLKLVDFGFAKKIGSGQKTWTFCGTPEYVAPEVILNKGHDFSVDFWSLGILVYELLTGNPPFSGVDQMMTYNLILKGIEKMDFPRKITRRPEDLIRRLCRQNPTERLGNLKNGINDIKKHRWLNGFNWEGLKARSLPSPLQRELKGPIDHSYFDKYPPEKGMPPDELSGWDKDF

PRKG2, construct: Full length, human (from UniProt Q13237)
relative phosphorylation
Conditions | at +1 | at +2 | at +3 | at +4 | at -1 | at -2 | at -3 | at -4 | at -5
A fixed | 0.876 | 1.35 | 1.04 | 0.834 | 0.761 | 0.368 | 0.816 | 1.28 | 1.24
D fixed | 0.313 | 0.408 | 0.703 | 0.573 | 0.421 | 0.132 | 0.147 | 0.472 | 0.416
E fixed | 0.45 | 0.386 | 0.697 | 0.601 | 0.361 | 0.113 | 0.206 | 0.584 | 0.415
F fixed | 1.34 | 1.09 | 0.948 | 0.919 | 0.928 | 0.285 | 0.477 | 0.753 | 0.859
G fixed | 0.563 | 0.911 | 1.2 | 1.07 | 0.529 | 0.387 | 0.983 | 1.23 | 1.21
H fixed | 1.02 | 1.39 | 1.42 | 1.21 | 1.18 | 0.662 | 1.09 | 0.997 | 1.05
I fixed | 1.56 | 1.16 | 0.83 | 1.01 | 0.993 | 0.24 | 0.337 | 0.731 | 0.883
K fixed | 1.06 | 1.21 | 1.29 | 1.05 | 1.78 | 4.63 | 2.46 | 1.74 | 2.05
L fixed | 1.29 | 0.936 | 0.943 | 0.883 | 1.16 | 0.321 | 0.376 | 0.789 | 0.745
M fixed | 1.36 | 0.935 | 0.893 | 1.1 | 1.12 | 0.261 | 0.412 | 0.896 | 0.722
N fixed | 0.801 | 0.765 | 0.893 | 1.04 | 0.921 | 0.436 | 0.577 | 0.766 | 0.803
P fixed | 0.28 | 0.748 | 0.932 | 1.55 | 1.26 | 0.349 | 1.32 | 1.14 | 1.07
Q fixed | 1.11 | 0.962 | 0.924 | 1.04 | 0.897 | 0.465 | 0.832 | 0.968 | 0.836
R fixed | 1.41 | 1.21 | 1.49 | 1 | 1.76 | 7.58 | 5.47 | 2.24 | 2.01
V fixed | 1.9 | 1.44 | 0.927 | 0.937 | 1.07 | 0.234 | 0.399 | 0.928 | 0.905
W fixed | 0.766 | 1.01 | 0.832 | 1.29 | 0.66 | 0.283 | 0.514 | 0.762 | 0.884
Y fixed | 0.901 | 1.09 | 1.04 | 0.892 | 1.2 | 0.265 | 0.575 | 0.716 | 0.902
pThr fixed | 0.816 | 0.427 | 0.557 | 0.911 | 0.426 | 0.306 | 0.471 | 0.756 | 0.666
pTyr fixed | 0.634 | 0.543 | 0.976 | 0.751 | 0.502 | 0.277 | 0.437 | 0.502 | 0.698

CDC42BPA, construct: aa1-473, human (from UniProt Q5VT25)
relative phosphorylation
Conditions | at +1 | at +2 | at +3 | at +4 | at -1 | at -2 | at -3 | at -4 | at -5
A fixed | 0.571 | 0.98 | 0.605 | 0.722 | 0.552 | 0.403 | 0.476 | 0.689 | 0.776
D fixed | 0.475 | 0.764 | 0.723 | 0.799 | 0.668 | 0.306 | 0.342 | 0.53 | 0.483
E fixed | 0.435 | 0.379 | 0.701 | 0.719 | 0.436 | 0.226 | 0.23 | 0.498 | 0.321
F fixed | 0.802 | 1.2 | 1.15 | 1.1 | 0.645 | 0.519 | 0.424 | 0.758 | 0.814
G fixed | 0.849 | 1.06 | 1.32 | 0.933 | 0.984 | 0.431 | 0.442 | 0.765 | 0.629
H fixed | 0.961 | 1.06 | 1.27 | 1.17 | 1.27 | 1.25 | 1.3 | 1.22 | 1.04
I fixed | 1.61 | 1.56 | 0.911 | 0.783 | 0.453 | 0.267 | 0.295 | 0.651 | 0.688
K fixed | 0.961 | 1.01 | 1.56 | 1.21 | 2.71 | 2.5 | 2.6 | 2.28 | 3.39
L fixed | 1.79 | 1.52 | 0.789 | 0.94 | 1.33 | 0.416 | 0.329 | 0.709 | 0.771
M fixed | 1.45 | 0.918 | 0.745 | 0.872 | 1.01 | 0.507 | 0.354 | 0.803 | 0.632
N fixed | 1.84 | 0.88 | 0.914 | 1.15 | 1.15 | 0.855 | 0.534 | 0.893 | 0.688
P fixed | 0.35 | 1.1 | 0.983 | 1.2 | 1.28 | 0.482 | 0.496 | 0.995 | 0.666
Q fixed | 1.18 | 0.681 | 1.3 | 1.06 | 1.13 | 0.973 | 0.75 | 0.847 | 0.911
R fixed | 1.17 | 0.868 | 1.01 | 1.04 | 1.45 | 5.97 | 7.05 | 3.1 | 2.99
V fixed | 0.898 | 1.08 | 0.702 | 0.777 | 0.529 | 0.292 | 0.282 | 0.641 | 0.586
W fixed | 0.867 | 0.952 | 1.12 | 1.53 | 0.605 | 0.852 | 0.622 | 0.902 | 0.809
Y fixed | 0.786 | 1.01 | 1.18 | 0.99 | 0.798 | 0.744 | 0.469 | 0.718 | 0.814
pThr fixed | 0.636 | 0.97 | 0.873 | 1.38 | 0.283 | 0.304 | 0.369 | 0.547 | 0.552
pTyr fixed | 1.24 | 0.795 | 0.785 | 1.13 | 0.396 | 0.353 | 0.378 | 0.441 | 0.391
